Source: patent publication US20240383988A1 (ERASCA, published 2024)
Each block holds one binder with its values, some of them ahead of it.

Legend:
EGFR fragment D1-D2 = EGFR fragment D1-D2 (Homo sapiens (Human), UniProt P00533 25-334, limits assumed); assay: flow cytometry on transfected HEK293T cells, saturating IgG, signal normalized
human EGFR [1] = molecular target: T1, human EGFR (human, UniProt P00533 25-645); assay: SPR with purified IgG on EGFR; column head 10^5 (s-1M-1)
T1 construct: Recombinant EGFR as used in SPR, ELISA and BLI; The phage selections used the EGFR ectodomain; also called immobilized EGFR; EGFR ectodomain (ECD)

EGFR fragment D3-D4 = EGFR fragment D3-D4 (Homo sapiens (Human), UniProt P00533 334-645, limits assumed); assay: flow cytometry on transfected HEK293T cells
human EGFR [2] = molecular target: T1, human EGFR; assay: SPR, IgG; optimized variant IgG ER-2a
human EGFR [3] = molecular target: T1, human EGFR; assay: SPR with purified IgG on EGFR; column head 10^-4 (s-1)
EGFR-D28 = molecular target: T2, EGFR-D28 (Homo sapiens (Human), UniProt P00533 25-1210); assay: flow cytometry on transfected cells
T2 construct: The deletion Cys240-Cys267 must be applied to the entry

EGFRvIII = molecular target: T3, EGFRvIII (UniProt P00533 25-1210); assay: flow cytometry on transfected cells
T3 construct: whole, on cells; The deletion must be applied to it

- binding result (EGFR fragment D1-D2): no binding
B1: IgG ER-3a (antibody, V domains shown)
VH: EVQLVESGGGLVQPGGSLRLSCAASGFDLYSYSMHWVRQAPGKGLEWVASVSPSSGSTYYADSVKGRFTISADTSKNTAYLQMNSLRAEDTAVYYCARHWHVYPSYYWGGFDYWGQGTLVTVSS
VL: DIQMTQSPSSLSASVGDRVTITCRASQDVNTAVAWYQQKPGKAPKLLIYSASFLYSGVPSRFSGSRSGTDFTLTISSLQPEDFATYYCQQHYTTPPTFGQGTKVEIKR
notes: IgG; also called Ab ER-3a

- kon (human EGFR [1]): 220000 M⁻¹ s⁻¹
- Kd (human EGFR [2]): 280 pM
- koff (human EGFR [3]): 6.1e-05 s⁻¹
B2: IgG ER-2a (antibody, V domains shown)
VH: EVQLVESGGGLVQPGGSLRLSCAASGFDVYYAAMHWVRQAPGKGLEWVASISPYYGYTSYADSVKGRFTISADTSKNTAYLQMNSLRAEDTAVYYCARYYHFSWHWSSFGGSYYPGMDYWGQGTLVTVSS
VL: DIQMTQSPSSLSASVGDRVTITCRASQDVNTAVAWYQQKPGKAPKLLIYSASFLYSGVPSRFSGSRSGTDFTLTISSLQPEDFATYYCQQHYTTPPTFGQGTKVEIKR
notes: IgG; also called Ab ER-2a
- binding result (EGFR fragment D3-D4): no binding (tested: saturating IgG concentrations)
- binding result (EGFR-D28): no binding (tested: saturating IgG concentrations)
- binding result (EGFRvIII): no binding (tested: saturating IgG concentrations)
